Laboratory results reported in patent US8198236B2, “Methods and compositions for the treatment of cancer” (Washington University, priority 2007, dated 2012).

How the values were obtained:
LRP6 [1] = target: T1, LRP6 (Homo sapiens, UniProt O75581); test: 125I-RAP binding to LRP6-transduced HT1080 cells; conditions: 500 nM unlabeled Mesd
T1 construct: expressed in transfected cells; host or cells: human HT1080 cells, retroviral vector pLNCX2
Description: (§1) Cells (2×10^5) were seeded into 12-well dishes 1 day prior to assay. Ligand-binding buffer (minimal Eagle's medium containing 0.6% BSA with a different concentration of radioligand, 0.6 ml/well) was added to cell monolayers, in the absence or the presence of 500 nM unlabeled RAP or 500 nM unlabeled Mesd, followed with incubation for 0-4 hours at 4° C. Thereafter, overlying buffer containing unbound ligand was removed, and cell monolayers were washed and lysed in low-SDS lysis buffer (62.5 mM Tris-HCl pH 6.8, 0.2% SDS, 10% v/glycerol) and counted.
Receptor-associated protein (RAP) binds with high affinity to LRP, megalin, VLDLR and apoER2, and with a lower affinity to the LDLR (Bu, G., Int. Rev. Cytol. 209, 79-116. 2001). To determine whether RAP and Mesd bind to identical, overlapping, or different sites on the receptors, we performed binding and competition analysis of these two chaperones with HT1080 cells stably expressing LRP6.
In FIG. 8A, binding of ^125I-RAP (5 nM) to LRP6-transduced HT1080 cells and the control cells was carried out for 4 hours at 4° C. in the absence (total) or presence of 500 nM RAP, or 500 nM Mesd. In FIG. 8B, binding of^125I-Mesd (5 nM) to LRP6-transduced HT1080 cells was carried out for 2 hours at 4° C. in the absence (total) or presence of various concentrations of RAP or 500 nM Mesd. […]

LRP6 [2] = target: T1, LRP6; test: Competition for 125I-Mesd binding to cell surface LRP6
Description: To examine whether Mesd binds with high affinity to most members of the LDLR family at the cell surface, we performed cell surface ligand binding experiments with cells stably transduced with LRP6 cDNA. Human HT1080 cells, which express undetectable levels of LRP6, were transduced with a viral vector alone (pLNCX2) or with vector containing LRP6 cDNA (Li, Y., Oncogene 23: 9129-9135, 2004) and used for ^125I-Mesd binding (FIG. 1A). ^125I-Mesd (5 nM) reached maximal binding after 2 hours incubation at 4° C. with LRP6-expressing HT1080 cells (FIG. 1A).
as §1
We performed binding of 5 nM ^125I-Mesd (5 nM) to cell surface LRP6 in the presence of various concentrations of excess unlabeled RAP or 500 nM unlabeled Mesd (FIG. 8B). RAP inhibited ^125I-Mesd binding in a dose-dependent manner with ˜60% inhibition achieved with 500 nM RAP, whereas the same concentration of unlabeled Mesd inhibited >90% of ^125I-Mesd binding (FIG. 8B). […] The lower affinity of RAP to cell surface LRP6 may also contribute to its lower efficiency in inhibition of Mesd binding.
In FIG. 8A, binding of ^125I-RAP (5 nM) to LRP6-transduced HT1080 cells and the control cells was carried out for 4 hours at 4° C. in the absence (total) or presence of 500 nM RAP, or 500 nM Mesd. In FIG. 8B, binding of^125I-Mesd (5 nM) to LRP6-transduced HT1080 cells was carried out for 2 hours at 4° C. in the absence (total) or presence of various concentrations of RAP or 500 nM Mesd. (C) LRP6-mediated ^125I-Mesd (5 nM) degradation was carried out for 4 hours at 37° C. in the absence or presence of 500 nM Mesd or 500 nM RAP. Values are the means of triple determinations with the s.d. indicated by error bars.
In order to investigate the binding of Mesd polypeptide and an Mesd oligopeptide to either LRP5 or LRP6, binding assays were performed using ^125I-Mesd or ^125I-DKK1 (FIG. 10).

LRP6 [3] = target: T1, LRP6; test: Cell surface Myc-DKK1 binding and immunodetection on LRP6-transduced HT1080 cells; conditions: 1 μM Mesd, immunofluorescence
Description: Human DKK1 cDNA (clone MGC:868, IMAGE:3508222) was obtained from Invitrogen and subcloned into pcDNA3 (EcoRI/XbaI). To facilitate immunodetection, a c-Myc epitope was included at the C-terminus. The integrity of the subcloned DNA sequence was confirmed by DNA sequencing. Human DKK1-conditioned media were produced by transient transfection of HEK293 cells with pcDNADKK1-Myc in serum-free medium, and allowed to bind to LRP6-transduced HT1080 cells and control cells at room temperature for 60 minutes in the absence or presence of 1 μM Mesd. Cells were then fixed in 4% paraformaldehyde, labeled with anti-Myc monoclonal antibody and detected with Alexa-488 goat anti-mouse IgG. The immunofluorescence was detected by a laser-scanning confocal microscope (Olympus Fluoview 500).
RAP is a receptor antagonist for members of the LDLR family, and is able to inhibit the binding of most known ligands of the LDLR family members. DKK1 is an LRP6-specific ligand and antagonist. […] In these experiments, Serum-free conditioned medium was harvested from HEK293 cells transiently transfected with cDNA for human Myc-DKK1 and allowed to bind to LRP6-transduced HT1080 cells (B,C) and control cells (A) in the absence (A,B) or presence (C) of 1 μM Mesd. Cell-surface-bound Myc-tagged DKK proteins were fixed and detected by immunofluorescence staining with anti-Myc antibody. […]

[4] = Side effects on non-tumor tissues of treated mice (H&E staining, x-ray, weight)
Description: Hemotoxylin and eosin (H&E) staining was performed on tumor xenograft tissue, skin and intestine harvested at the end of Mesd treatment.
FIG. 24D: H&E staining of tail vertebrae treated with PBS, Mesd or Mesd peptide.

T1 sequence (O75581 20-1613): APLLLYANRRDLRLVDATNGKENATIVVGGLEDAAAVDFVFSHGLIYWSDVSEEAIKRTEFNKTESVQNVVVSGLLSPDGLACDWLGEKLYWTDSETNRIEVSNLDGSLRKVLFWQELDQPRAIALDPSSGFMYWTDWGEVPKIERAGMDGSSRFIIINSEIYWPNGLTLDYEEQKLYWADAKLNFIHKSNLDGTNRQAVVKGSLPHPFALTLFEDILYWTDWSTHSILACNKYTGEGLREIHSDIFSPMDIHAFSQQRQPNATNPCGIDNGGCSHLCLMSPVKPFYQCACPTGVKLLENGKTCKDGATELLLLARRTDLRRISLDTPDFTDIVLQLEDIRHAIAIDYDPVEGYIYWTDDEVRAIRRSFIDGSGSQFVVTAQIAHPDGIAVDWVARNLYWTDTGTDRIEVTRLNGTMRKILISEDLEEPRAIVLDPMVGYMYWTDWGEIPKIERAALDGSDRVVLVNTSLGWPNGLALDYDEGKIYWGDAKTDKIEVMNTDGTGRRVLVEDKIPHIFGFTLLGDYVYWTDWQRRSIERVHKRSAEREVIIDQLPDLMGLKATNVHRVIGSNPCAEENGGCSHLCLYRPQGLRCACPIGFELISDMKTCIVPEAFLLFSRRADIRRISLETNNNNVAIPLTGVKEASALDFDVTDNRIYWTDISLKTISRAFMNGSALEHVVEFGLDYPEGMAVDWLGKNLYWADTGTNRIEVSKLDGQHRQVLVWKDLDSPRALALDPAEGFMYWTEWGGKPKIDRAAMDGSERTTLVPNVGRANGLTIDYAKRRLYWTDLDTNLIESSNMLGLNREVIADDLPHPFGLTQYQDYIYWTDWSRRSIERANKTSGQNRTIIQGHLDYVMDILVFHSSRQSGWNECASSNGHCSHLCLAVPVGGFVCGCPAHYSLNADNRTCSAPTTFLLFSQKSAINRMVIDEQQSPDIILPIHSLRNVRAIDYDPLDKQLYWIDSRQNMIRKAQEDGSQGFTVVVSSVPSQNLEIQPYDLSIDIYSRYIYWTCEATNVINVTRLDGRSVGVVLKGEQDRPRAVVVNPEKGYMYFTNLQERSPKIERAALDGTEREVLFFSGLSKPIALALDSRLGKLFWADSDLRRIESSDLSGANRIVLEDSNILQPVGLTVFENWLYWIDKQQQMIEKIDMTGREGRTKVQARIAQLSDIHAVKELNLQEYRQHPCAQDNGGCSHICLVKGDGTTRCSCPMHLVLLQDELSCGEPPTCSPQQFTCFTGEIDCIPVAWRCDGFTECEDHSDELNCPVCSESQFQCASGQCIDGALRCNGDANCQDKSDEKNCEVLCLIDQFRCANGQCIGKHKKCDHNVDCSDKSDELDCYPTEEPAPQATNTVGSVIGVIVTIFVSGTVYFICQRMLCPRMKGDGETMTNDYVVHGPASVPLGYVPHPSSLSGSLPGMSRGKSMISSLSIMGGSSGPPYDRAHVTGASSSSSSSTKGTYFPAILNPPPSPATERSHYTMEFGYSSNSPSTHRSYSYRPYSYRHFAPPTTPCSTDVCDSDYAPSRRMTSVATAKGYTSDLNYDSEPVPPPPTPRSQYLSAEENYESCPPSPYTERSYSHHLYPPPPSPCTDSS

B1: Mesd: Recombinant full-length mouse Mesd expressed in E. coli, N-terminal polyhistidine tail, lacking the signal peptide (protein)
chain: ADTPGEATPPPRKKKDIRDYNDADMARLLEQWEKDDDIEEGDLPEHKRPSAPIDFSKLDPGKPESILKMTKKGKTLMMFVTVSGNPTEKETEEITSLWQGSLFNANYDVQRFIVGSDRAIFMLRDGSYAWEIKDFLVSQDRCAEVTLEGQMYPGKGGGSKEKNKTKPEKAKKKEGDRKPRASKEDNRAGSRREDL
modifications: left off: small tags and cut ends
notes: Recombinant full-length mouse Mesd expressed in E. coli, N-terminal polyhistidine tail, lacking the signal peptide
Effect of excess unlabeled Mesd on the LRP6-dependent increase of 125I-RAP binding (LRP6 [1]): abolished | Inhibition of 125I-Mesd binding to cell surface LRP6 (LRP6 [2]; 500 nM unlabeled competitor, 125I-Mesd 5 nM, 2 hours at 4° C.): > 90% | Effect of excess unlabeled protein on 125I-Mesd binding (LRP6 [2]; 500 nM unlabeled, 125I-Mesd 5 nM, 4° C.): completely eliminated this binding | Reduction of binding of 125I-Mesd to LRP6 (LRP6 [2]; FIG. 10C, compared with LRP5): even greater reduction | Binding of Myc-DKK1 to LRP6 at the cell surface (LRP6 [3]): completely blocked | Adverse effect on small intestine (gross examination) ([4]; FIG. 17E): no significant adverse effect | Architecture of gastrointestinal compartments and skin (H&E) ([4]; after 10 treatments): morphologically normal | Bone lesions or outgrowths in tail vertebrae ([4]; conditions in which antitumor efficacy was achieved): no significant bone lesions or outgrowths | General health and body weight of treated mice ([4]; mouse, in vivo): grossly healthy and maintain their weights
